According to the supplement of paper PMC9732359:
± gives the uncertainty stated by the source.

Assay: protein stability index of a GFP-peptide fusion (yeast GPS) (PSI 1-4); higher = more stable; sorted into four equal gates, so the index is relative within each strain
Summary of the method: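 Tiled 17-residue peptides from yeast proteins were fused downstream of GFP on a plasmid that also expresses Cherry, and the pooled library was carried in yeast. Mid-log cultures grown in leucine-free medium were sorted into four equal gates by GFP/Cherry fluorescence ratio. Plasmids from each gate were PCR-amplified and Illumina-sequenced, and reads were assigned to strains by barcodes. Each peptide's protein stability index is the sum, over gates, of the gate's read frequency multiplied by its gate number.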

Sequence	protein stability index (doa10∆)	protein stability index (pdr5∆)	protein stability index (san1∆)	protein stability index (ubr1∆)
YIRVNHADKDTFSSSIS [POP8]	2.76 ± 0.049	2.61 ± 0.052	2.52 ± 0.053	2.18 ± 0.037
NRSEQNGQEQQGPVKNT [RGR1]	3.26 ± 0.16	3.39 ± 0.14	3.11 ± 0.11	3.55 ± 0.22
GTCNGDITTSIMDNFLE [RPN1]	2.77 ± 0.054	2.85 ± 0.057	2.86 ± 0.056	2.82 ± 0.068
QKTVNLKNIMKVSDPYV [RPN4]	2.32 ± 0.084	2 ± 0.11	2.48 ± 0.1	1.82 ± 0.058
IVDGKLKTEKIFKEINE [FAS1]	1.76 ± 0.074	1.85 ± 0.13	1.91 ± 0.11	1.91 ± 0.091
EVTFKNANIFSSVKCFG [FAS1]	2.92 ± 0.046	2.81 ± 0.058	2.84 ± 0.063	3.06 ± 0.052
LKQDLKKISSFKSLIDE [YGL172W/NUP49]	2.81 ± 0.052	2.79 ± 0.05	3.08 ± 0.04	3.06 ± 0.034
LLIRKLPFQRLVREIAQ [HHT1]	1.29 ± 0.085	1.48 ± 0.094	1.44 ± 0.16	1.73 ± 0.097
EKVNNNATLTPNDSNDE [SWI1]	3.26 ± 0.07	3.14 ± 0.057	3.11 ± 0.063	3.16 ± 0.047
RKWAARAASAKIESSVE [RPS8A]	3.21 ± 0.087	3.2 ± 0.062	2.74 ± 0.056	3.4 ± 0.054
AQGTKFRISLGLPVGAI [RPL23A]	1.94 ± 0.1	1.84 ± 0.063	1.42 ± 0.17	1.92 ± 0.11
LSGKFSTIPTRENGKGG [ROX3]	3.28 ± 0.23	3.22 ± 0.11	3.01 ± 0.063	3.1 ± 0.23
RAGMTHEDEKLIPTIFR [PRP8]	3.19 ± 0.085	3.28 ± 0.076	3.15 ± 0.049	3.19 ± 0.05
SRFTNVSVIAPESQGQH [YMR153W/NUP53]	3 ± 0.09	3.39 ± 0.087	2.6 ± 0.12	3.19 ± 0.048
SQSKMMSSQISSLIPHC [MTR3]	2.35 ± 0.057	2.09 ± 0.039	2.21 ± 0.048	2.31 ± 0.042
PDDEKFTDENTIVLSLN [RPC40]	3.46 ± 0.13	3.6 ± 0.085	3 ± 0.16	3.47 ± 0.087
ELTAQGYDPALLNILSG [RPN2]	2.76 ± 0.091	3.06 ± 0.12	2.58 ± 0.071	2.89 ± 0.079
SMPLEQLIPIILRQRGP [SRB4]	2.05 ± 0.057	2.31 ± 0.058	2.32 ± 0.083	1.91 ± 0.055
ACHVEVPYVLMGQIATF [COB]	2.08 ± 0.092	1.98 ± 0.088	1.87 ± 0.12	1.94 ± 0.066
NHVMPLKPVDKLKPMNI [SIN4]	2.84 ± 0.1	2.93 ± 0.083	2.83 ± 0.087	2.94 ± 0.094
AKSTPNTNPSPLKTQTK [GAL11]	2.82 ± 0.051	2.94 ± 0.046	2.64 ± 0.05	2.91 ± 0.038
KNDKLIKIEDFVDDMLR [SNF5]	2.88 ± 0.063	2.73 ± 0.066	1.98 ± 0.078	2.68 ± 0.07
KARNGLDYVRTPAAATS [SNF2]	2.4 ± 0.059	2.44 ± 0.072	2.12 ± 0.08	2.35 ± 0.049

Sequence	protein stability index (doa10∆)	protein stability index (pdr5∆)	protein stability index (san1∆)	protein stability index (ubr1∆)
MSGSFWTSTQRHHWQYT [SSN8]	2.07 ± 0.14	2.27 ± 0.15	1.97 ± 0.13	2.23 ± 0.099
VQRQIEQQKGQQTAQTQ [SNF5]	3.41 ± 0.08	3.3 ± 0.078	3.3 ± 0.061	3.07 ± 0.055
DTAVKTAETGYIQRRLV [RPO21]	1.75 ± 0.053	2.5 ± 0.069	1.98 ± 0.12	2.13 ± 0.058
NERRKDLAERASELDES [SMC3]	2.13 ± 0.058	2.79 ± 0.06	1.98 ± 0.11	2.97 ± 0.054
LNHVVSLIENKKAKLVL [RPL8B]	2.46 ± 0.088	3.54 ± 0.17	2.98 ± 0.1	2.83 ± 0.1
QEASKQYTKDEQFYTKD [RPN2]	3.41 ± 0.085	3.3 ± 0.086	3.19 ± 0.083	3.25 ± 0.056
KNYLKNYILNFKQSNSE [CDC53]	2.6 ± 0.044	1.95 ± 0.043	2.34 ± 0.083	1.89 ± 0.037
IAASAFLSLLNLATKGM [REC8]	1.54 ± 0.054	1.52 ± 0.054	1.71 ± 0.1	1.62 ± 0.046
QTIEMITQIVEKDFCTS [SRB8]	2.86 ± 0.054	3.08 ± 0.058	2.93 ± 0.047	3.02 ± 0.048
EGFAADDEPTTPAELVG [FAS1]	3.3 ± 0.09	3.19 ± 0.092	3.2 ± 0.071	3.19 ± 0.076
NISTNTNIHEPQYINYS [SSN2]	3.17 ± 0.067	2.98 ± 0.078	2.74 ± 0.069	2.97 ± 0.078
FNKYADPTLTTTTSFTT [RPN4]	2.35 ± 0.035	2.57 ± 0.042	2.26 ± 0.04	2.48 ± 0.029
PEHLRKIINTHSDMASK [PRP8]	2.01 ± 0.053	2.04 ± 0.051	2.15 ± 0.097	2.37 ± 0.039
RSALEKGSRFISTLQVK [RPB2]	1.47 ± 0.13	1.23 ± 0.087	1.67 ± 0.19	1.6 ± 0.088
AQFTFGKAATAKETHTK [YOR098C/NUP1]	2.84 ± 0.13	2.81 ± 0.17	2.84 ± 0.18	3.02 ± 0.18
LKNMLYVLSTAVEFESV [BRR2]	1.77 ± 0.038	1.58 ± 0.037	1.88 ± 0.081	1.42 ± 0.032
HGTSTSAEDEENIIQRL [CDC53]	3.13 ± 0.064	3.34 ± 0.059	3.13 ± 0.044	3.06 ± 0.057
YLKVSEEEIKKFDSRIR [PRP8]	2.9 ± 0.072	3.08 ± 0.083	2.78 ± 0.066	3.15 ± 0.061
CKLFLADVFTDDDLFET [YCG1]	3.03 ± 0.08	3.06 ± 0.051	3.03 ± 0.048	2.59 ± 0.038
RDCIDISIFSTPGSVSL [PRP8]	2.79 ± 0.11	2.88 ± 0.11	2.45 ± 0.1	3.02 ± 0.12
MGMDLYKTSKAAQDVWN [FAS1]	3.08 ± 0.13	3.37 ± 0.16	3.08 ± 0.13	3.43 ± 0.077
LKTVIILSSLYLLSIWV [CYT1]	2.12 ± 0.11	1.45 ± 0.092	1.24 ± 0.15	1.17 ± 0.056
